Source: article doi:10.1101/2021.04.26.441501 (bioRxiv, 2021)

Biological target: SARS-CoV-2 RBD (residues 319-514) with C-terminal hexahistidine tag (Severe acute respiratory syndrome …, UniProt P0DTC2)
Assay: ELISA

B1: SARS2-38 (murine IgG1 mAb) (antibody, V domains shown)
VH: QVQLKESGPGLVAPSQSLSITCTVSGFSLTRYGVHWVRQPPGKGLEWLGVIWADGSTYYNSALMSRLSISKDNSKSQVFLNMNSLQTDDTAKYYCARDGRGYDDYWGQGTTLTVSS
VL: QIVLTQSPAIMSASPGEKVTMTCSASSTVSFIYWYQQKPGSSPRLLIYDTSNPASGVPVRFSGSGCGTSYYLTISRMEAEDAATYYCQQWNTYPLTFGAGTKLELK
- binding result: binds
